These results are taken from patent US20140286957A1 (Teva, published 2014).

Where a chain is given by its changes, count along the chain named. Where two headings read alike, the source gives them in different places. A value given as a limit tells only on which side of the number the result lay.

The target of experiment [1] is T1, Human CD1d/β2M (human, UniProt P15813 20-301; P61769 21-119).
T1 construct: also called hCD1d; recombinant human CD1d
Put plainly: SPR, transfection supernatant. A general note: SPR reads the build-up and loss of mass on a sensor chip optically.

For experiment [2], the target named is T1, Human CD1d/β2M. Put plainly: SPR, transfection supernatant. This is another data set of the same source.

B1: 401.11.38 (antibody, name in Kabat numbering, V domains shown)
VH: QVQLVGSGGGLVKPGRSLRLSCAASGFTFDDYAMHWVRQAPGKGLEWVATIIWNSAIIGYADSVKGRFIVSRDNAKNSLYLQMNSLRAEDMALYYCAKSMCSSSGCPDGYFDSWGQGTLVTVSS
VL: DIQMTQSPSSVSASVGDRVTITCRASQHISSWLAWYQQKPGKAPNLLIYAASSLQSGVSSRFSGSGSGTDFTLTISSLQPEDFATYYCQQANRFPLTFGGGTKLEIKR
On to B1, for which the binding result in the experiment with Human CD1d/β2M [1] is given as “no binding”.

B2: 401.11.135 (antibody, name in Kabat numbering, V domains shown)
VH: B1 VH with S99D, S113V
VL: B1 VL
One may read the Kd as the equilibrium constant for the complex coming apart. Low values mean a tighter complex, high ones a looser complex. On to B2, for which the Kd with Human CD1d/β2M [2] was 0.421 nM.

B3: 401.11.81 (antibody, name in Kabat numbering, V domains shown)
VH: B1 VH with S99D, S104L
VL: B1 VL
Regarding B3, binding in the experiment with Human CD1d/β2M [1] was put at a Kd of 0.552 nM.

B4: 401.11.123 (antibody, name in Kabat numbering, V domains shown)
VH: B1 VH with S99D, G109R
VL: B1 VL
The molecule B4 gave a Kd in the experiment with Human CD1d/β2M [2] of 0.239 nM.

B5: 401.11.126 (antibody, name in Kabat numbering, V domains shown)
VH: B1 VH with S99D, Y110S
VL: B1 VL
B5 showed a dissociation constant (Kd) with Human CD1d/β2M [2] of 0.0313 nM.

B6: 401.11.117 (antibody, name in Kabat numbering, V domains shown)
VH: B1 VH with S99D, D108Q
VL: B1 VL
Consider B6, for which the Kd in the experiment with Human CD1d/β2M [2] came out at 1.33 nM.

B7: 401.11.49 (antibody, name in Kabat numbering, V domains shown)
VH: B1 VH with S99D, M100S
VL: B1 VL
As to B7, in the experiment with Human CD1d/β2M [1], the Kd turned out to be 0.401 nM.

B8: 401.11.132 (antibody, name in Kabat numbering, V domains shown)
VH: B1 VH with S99D, S113T
VL: B1 VL
For the molecule B8, the affinity with Human CD1d/β2M [2], expressed as Kd, was 0.569 nM.

B9: 401.11.137 (antibody, name in Kabat numbering, V domains shown)
VH: B1 VH with S99D, S113R
VL: B1 VL
B9 had a Kd with Human CD1d/β2M [2] of 0.938 nM.

B10: 401.11.68 (antibody, name in Kabat numbering, V domains shown)
VH: B1 VH with S99D, S102G
VL: B1 VL
In the experiment with Human CD1d/β2M [1], B10 returned a dissociation constant (Kd) of 1.17 nM.

B11: 401.11.134 (antibody, name in Kabat numbering, V domains shown)
VH: B1 VH with S99D, S113L
VL: B1 VL
Regarding B11, the Kd in the experiment with Human CD1d/β2M [2] came out at 0.532 nM.

B12: 401.11.73 (antibody, name in Kabat numbering, V domains shown)
VH: B1 VH with S99D, S103V
VL: B1 VL
The molecule B12 showed a dissociation constant Kd in the experiment with Human CD1d/β2M [1] of 0.527 nM.

B13: 401.11.67 (antibody, name in Kabat numbering, V domains shown)
VH: B1 VH with S99D, S102Y
VL: B1 VL
B13 returned a Kd in the experiment with Human CD1d/β2M [1] of 0.0485 nM.

B14: 401.11.61 (antibody, name in Kabat numbering, V domains shown)
VH: B1 VH with S99D, S102T
VL: B1 VL
As to B14, in the experiment with Human CD1d/β2M [1], the Kd was 0.242 nM.

B15: 401.11.83 (antibody, name in Kabat numbering, V domains shown)
VH: B1 VH with S99D, S104K
VL: B1 VL
The molecule B15 showed a Kd with Human CD1d/β2M [1] of 1.55 nM.

B16: 401.11.118 (antibody, name in Kabat numbering, V domains shown)
VH: B1 VH with S99D, G109S
VL: B1 VL
In the experiment with Human CD1d/β2M [2], B16 registered a Kd of under 0.01 nM.

B17: 401.11.119 (antibody, name in Kabat numbering, V domains shown)
VH: B1 VH with S99D, G109A
VL: B1 VL
In the experiment with Human CD1d/β2M [2], B17 had a Kd of 0.877 nM.

B18: 401.11.69 (antibody, name in Kabat numbering, V domains shown)
VH: B1 VH with S99D, S103D
VL: B1 VL
B18 returned a Kd with Human CD1d/β2M [1] of 0.144 nM.

B19: 401.11.124 (antibody, name in Kabat numbering, V domains shown)
VH: B1 VH with S99D, Y110W
VL: B1 VL
As to B19, the Kd with Human CD1d/β2M [2] was 1.38 nM.

B20: 401.11.75 (antibody, name in Kabat numbering, V domains shown)
VH: B1 VH with S99D, S103R
VL: B1 VL
In the case of B20, the binding result with Human CD1d/β2M [1] is reported as “no binding”.

B21: 401.11.64 (antibody, name in Kabat numbering, V domains shown)
VH: B1 VH with S99D, S102V
VL: B1 VL
For B21, in the experiment with Human CD1d/β2M [1], the Kd was found to be 0.23 nM.

B22: 401.11.122 (antibody, name in Kabat numbering, V domains shown)
VH: B1 VH with S99D, G109K
VL: B1 VL
Turning to B22, the Kd with Human CD1d/β2M [2] came to 0.13 nM.

B23: 401.11.74 (antibody, name in Kabat numbering, V domains shown)
VH: B1 VH with S99D, S103K
VL: B1 VL
In the experiment with Human CD1d/β2M [1], B23 gave a Kd of 0.0933 nM.

B24: 401.11.80 (antibody, name in Kabat numbering, V domains shown)
VH: B1 VH with S99D, S104W
VL: B1 VL
As for B24, the dissociation constant Kd with Human CD1d/β2M [1] is 2.34 nM.

B25: 401.11.139 (antibody, name in Kabat numbering, V domains shown)
VH: B1 VH with S99D, S113G
VL: B1 VL
Turning to B25, in the experiment with Human CD1d/β2M [2], the Kd was 0.594 nM.

B26: 401.11.127 (antibody, name in Kabat numbering, V domains shown)
VH: B1 VH with S99D, Y110Q
VL: B1 VL
Turning to B26, in the experiment with Human CD1d/β2M [2], the affinity, expressed as Kd, was 2.7 nM.

B27: 401.11.131 (antibody, name in Kabat numbering, V domains shown)
VH: B1 VH with S99D, S113D
VL: B1 VL
On to B27, for which, in the experiment with Human CD1d/β2M [2], the Kd was 0.2 nM.

B28: 401.11.125 (antibody, name in Kabat numbering, V domains shown)
VH: B1 VH with S99D, Y110F
VL: B1 VL
In the experiment with Human CD1d/β2M [2], B28 gave a Kd of 0.535 nM.

B29: 401.11.133 (antibody, name in Kabat numbering, V domains shown)
VH: B1 VH with S99D, S113W
VL: B1 VL
The molecule B29 yielded a Kd in the experiment with Human CD1d/β2M [2] of 0.167 nM.

B30: 401.11.72 (antibody, name in Kabat numbering, V domains shown)
VH: B1 VH with S99D, S103L
VL: B1 VL
B30: the Kd with Human CD1d/β2M [1] is 0.649 nM.

B31: 401.11.84 (antibody, name in Kabat numbering, V domains shown)
VH: B1 VH with S99D, S104R
VL: B1 VL
Molecule B31 came in with a dissociation constant (Kd) with Human CD1d/β2M [1] of 1.12 nM.

B32: 401.11.71 (antibody, name in Kabat numbering, V domains shown)
VH: B1 VH with S99D, S103W
VL: B1 VL
B32: the Kd with Human CD1d/β2M [1] is under 0.01 nM.

B33: 401.11.70 (antibody, name in Kabat numbering, V domains shown)
VH: B1 VH with S99D, S103T
VL: B1 VL
For B33, binding with Human CD1d/β2M [1] was characterised by a dissociation constant (Kd) of 0.549 nM.

B34: 401.11.136 (antibody, name in Kabat numbering, V domains shown)
VH: B1 VH with S99D, S113K
VL: B1 VL
As to B34, in the experiment with Human CD1d/β2M [2], the Kd was under 0.01 nM.

B35: 401.11.50 (antibody, name in Kabat numbering, V domains shown)
VH: B1 VH with S99D, M100G
VL: B1 VL
As to B35, the Kd in the experiment with Human CD1d/β2M [1] is 0.187 nM.

B36: 401.11.138 (antibody, name in Kabat numbering, V domains shown)
VH: B1 VH with S99D, S113Y
VL: B1 VL
On to B36, for which binding in the experiment with Human CD1d/β2M [2] was characterised by a dissociation constant (Kd) of 0.171 nM.

B37: 401.11.79 (antibody, name in Kabat numbering, V domains shown)
VH: B1 VH with S99D, S104T
VL: B1 VL
For the molecule B37, the binding result with Human CD1d/β2M [1] is “no binding”.

B38: 401.11.44 (antibody, name in Kabat numbering, V domains shown)
VH: B1 VH with S99D, M100K
VL: B1 VL
B38: the equilibrium dissociation constant (Kd) with Human CD1d/β2M [1] was 0.431 nM.

B39: 401.11.77 (antibody, name in Kabat numbering, V domains shown)
VH: B1 VH with S99D, S103G
VL: B1 VL
B39 showed a Kd with Human CD1d/β2M [1] of 0.272 nM.

B40: 401.11.46 (antibody, name in Kabat numbering, V domains shown)
VH: B1 VH with S99D, M100F
VL: B1 VL
Take B40: the Kd with Human CD1d/β2M [1] came out at 0.303 nM.

B41: 401.11.63 (antibody, name in Kabat numbering, V domains shown)
VH: B1 VH with S99D, S102L
VL: B1 VL
With B41, in the experiment with Human CD1d/β2M [1], the Kd was 0.189 nM.

B42: 401.11.45 (antibody, name in Kabat numbering, V domains shown)
VH: B1 VH with S99D, M100R
VL: B1 VL
Molecule B42 had a Kd with Human CD1d/β2M [1] of 0.249 nM.

B43: 401.11.65 (antibody, name in Kabat numbering, V domains shown)
VH: B1 VH with S99D, S102K
VL: B1 VL
In turn, B43 yielded a Kd with Human CD1d/β2M [1] of 1.67 nM.

B44: 401.11.66 (antibody, name in Kabat numbering, V domains shown)
VH: B1 VH with S99D, S102R
VL: B1 VL
B44 displayed a Kd with Human CD1d/β2M [1] of 0.156 nM.

B45: 401.11.82 (antibody, name in Kabat numbering, V domains shown)
VH: B1 VH with S99D, S104V
VL: B1 VL
As to B45, the binding result with Human CD1d/β2M [1] was “no binding”.
